The values that follow come from the DeepSol protein solubility set.

A short description of this series: soluble on expression in E. coli; label from the status in PepcDB or PDB records.
As to “MDWKKIYEDRTCTADEAVKSIKSGDRVLFAHCVAEPPVLVEAMVANAAAYKNVTVSHMVTLGKGEYSKPEYKENFTFEGWFTSPSTRGSIAEGHGQFVPVFFHEVPSLIRKDIFHVDVFMVMVSPPDHNGFCCVGVSSDYTMQAIKSAKIVLAEVNDQVPVVYGDTFVHVSEIDKFVETSHPLPEIGLPKIGEVEAAIGKHCASLIEDGSTLQLGIGAIPDAVLSQLKDKKHLGIHSEMISDGVVDLYEAGVIDCSQKSIDKGKMAITFLMGTKRLYDFAANNPKVELKPVDYINHPSVVAQCSKMVCINACLQVDFMGQIVSDSIGTKQFSGVGGQVDFVRGASMSIDGKGKAIIAMPSVAKKKDGSMISKIVPFIDHGAAVTTSRNDADYVVTEYGIAEMKGKSLQDRARALINIAHPDFKDELKAEFEKRFNAAFSAWSHPQFEK”, the “soluble on expression in E. coli” value was “soluble”.

For the sequence “MDWVRLLSRLVQAESLPGEEGEAAGLLLEALKGMGLEATLDEAGNIEALLGEKGPEVVLTGHMDVVPVGDPARWPYPQGAVAEGSLWGRGAVDMKGSLVAMLLALETLARGALKGRVRFLAVVQEEVGGLGSRFAAERLSPLAFVLGEPSSGRLMRGHRGRRKVWADFEGRETHAALAGPENPLFDLGAYLLALQDLPLPPGVKLTPTRVDTHPGARNQTPGVVRLYLDVRYEPEADLDGLLAALRTLGPASVYLPEEERASGEVRMTLPALWPPYRLPEDHPLLQAALQALGQEEAGLWPFTTDAPYLGAKAPVLGLGPGDPALAHTPMEHVPLRAVEEAAQAYVRLVEALWNAD”, the “soluble on expression in E. coli” value is on record as “soluble”.

As to “MDYNKTAKDILKLLGGEKNVMSAAHCATRLRLVLKNEKEARTKEIEKLDGVKGVFSSSGQYQIIIGQGSVNKVYKAFVEGTGISESSLSDTKKAAMKNM”, the “soluble on expression in E. coli” value is listed as “not soluble”.

On to “MEAEELTVGRVHHGHNIRRFRIEKNMNQEVLSQLVHLSQSAVSKYEQMRVIDDEMLHRFSRALGVPFEYLKSLEEDAQTVVFENNTVNNNDQASANIGGYVEENNRVNNYNPIEKITELYERLLKEKDEKYAALERRLQNIEQSLQK”, for which the “soluble on expression in E. coli” value is “not soluble”.

Turning to “MEAGSIVLGLVGKTNVGKSTFFAAATEVPVKIENRPFVTIEPNVGVGYARKRCAHVELGLPRCDPVNSLCIEGWRFIPVKLLDVAGLVPGAHRGRGLGNRFLDDVRKADALLLVVDASGSTDPEGVPVKPGSYDPVEEVGLMLGEIYEWMLQNLARDWERFARRVDTAGNVDLVTALSQRLSGFEIPRGVVAGVLEETGLGEKRLSSWSREDLRLFVKLVLERGKPAVILANKVDVPGAEENVERLGSSYPGIPVVPASALAELMLRRLAREGRVRYIPGDPDFTVKDPGGLGGKALKALELVRERVMKRWGGTGVVQAINTAVFDVLDMIAVYPVEDPNRYTDREGRILPDVILVKRGSTPRDLAYRIHTDLGKTFLYAVNAKTKQRVGEGYRLQDGDVVKIVAAAGKR”, the “soluble on expression in E. coli” value was “soluble”.

With “MEALGKTILASDDINSIKKNLAKHIVHLNEENEKYRNEIKLLKKNKDINNQILFTLNKTEISSDMIDSLFMQTKNVIIQVTNKKY”, the “soluble on expression in E. coli” value was “not soluble”.

Take “MECYVFTPKGRIIKLPRGATIVDFAYAVHTDIGNSCVSARVNRILAPLHSVLENGQTIEIITAPWARPNPLEHHHHHH”: the “soluble on expression in E. coli” value is “not soluble”.

For the sequence “MEDDHSKEMDRLRSQAAKVQSEKETFDRKRRETLEKHKKELDELEKKNKKEEDDLREQNMNLWNKNLDQQIALGNELNNKYTEISNQNSRLQIKIGQEEDIRVFKIKLLDVSKVWTDVKVNYQDYLRNTLDEHSNSNKSDVLKEIDTLIYNKEKLNEVLITAKKLLGKCQKFTTSDSFKVINDSLTELMRFKFEDDILIELKTIIKKNGSAEQSFLTKMDETIDKYNEMVNELPGLQLKSVEPIHQAAIQ”, the “soluble on expression in E. coli” value is “soluble”.

For “MEDELPIIKGKKVILFAPTFRGSGHGTAHYPFFKIDFERLARYCEKNNAVVLFKMHPFVKNRLNIADKHKQYFVDVSDFREVNDILFITDLLISDYSSLIYEYAVFKKPMIFYAFDLEDYITTRDFYEPYESFVPGKIVQSFDALMDALDNEDYEGEKVIPFLDKHFKYQDGRSSERLVRNLFGS”, the “soluble on expression in E. coli” value was “soluble”.

Regarding “MEDERIKLLFKEKALEILMTIYYESLGGNDVYIQYIASKVNSPHSYVWLIIKKFEEAKMVECELEGRTKIIRLTDKGQKIAQQIKSIIDIMENDT”, the “soluble on expression in E. coli” value is given as “soluble”.

As to “MEDKEAVRRGVTLFALPAHAGEGAKAIWQTCDVIWSALGDSSEDVNWYTKRATLSAVYSATVLYWLGDETPGHEATWEFLDRRIDNVMQFEKFKADVQKNPLLKPLLAGPNWLFAQMRAPLEHHHHHH”, the “soluble on expression in E. coli” value is “soluble”.
